Patent US20230025732A1 (INNATE PHARMA, published 2023)

Experiments:
[1] = biological target: T1, human CD39 expressed at the cell surface (human, UniProt P49961 1-510); assay: flow cytometry titration on Ramos lymphoma cells (Mean of Fluorescence), panel L1
T1 construct: On CHO transfectants, Hek-293T transfectants, Ramos and Mino tumor cells; also called huCD39; CHO-huCD39
T1 sequence: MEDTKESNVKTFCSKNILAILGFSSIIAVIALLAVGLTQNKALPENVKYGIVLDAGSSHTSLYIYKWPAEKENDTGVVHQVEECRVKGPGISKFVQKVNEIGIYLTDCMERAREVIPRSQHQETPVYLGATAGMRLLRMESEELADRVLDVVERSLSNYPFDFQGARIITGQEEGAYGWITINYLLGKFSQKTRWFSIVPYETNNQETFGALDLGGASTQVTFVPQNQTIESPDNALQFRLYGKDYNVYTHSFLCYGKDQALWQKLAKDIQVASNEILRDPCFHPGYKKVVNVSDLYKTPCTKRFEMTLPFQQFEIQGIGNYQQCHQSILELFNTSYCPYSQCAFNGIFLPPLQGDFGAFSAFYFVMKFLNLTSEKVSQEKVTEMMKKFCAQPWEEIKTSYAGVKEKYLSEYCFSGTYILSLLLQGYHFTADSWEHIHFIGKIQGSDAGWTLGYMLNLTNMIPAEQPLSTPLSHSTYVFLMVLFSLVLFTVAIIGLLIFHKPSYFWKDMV

[2] = biological target: T1, human CD39 expressed at the cell surface; assay: flow cytometry titration on Ramos lymphoma cells (Mean of Fluorescence), panel L0
[3] = biological target: T1, human CD39 expressed at the cell surface; assay: flow cytometry titration on Ramos lymphoma cells (Mean of Fluorescence), panel L1*

B1: mAb8 H2L1 (antibody, human IgG1, V domains shown)
VH: QVQLVQSGAEVKKPGASVKVSCKASGYTFTDYNMHWVRQAPGQRLEWMGYIVPLNGGSTFNQKFKGRATITVDTSASTAYMELSSLRSEDTAVYYCARGGTRFAYWGQGTLVTVSS
VL: DIVMTQSPDSLAVSLGERATINCRASESVDNFGVSFMYWFQQKPGQPPKLLIYGASNQGSGVPDRFSGSGSGTDFTLTISSLQAEDVAVYYCQQTKEVPYTFGGGTKVEIK
B1: binds [1].

B2: mAb5 H1L1 (antibody, human IgG1, V domains shown)
VH: QVQLVQSGAEVKKPGASVKVSCKASGYTFTDYNMHWVRQAPGQRLEWMGYIVPLNGGSTFNQKFKGRVTITVDTSASTAYMELSSLRSEDTAVYYCARGGTRFAYWGQGTLVTVS
VL: DIVMTQSPDSLAVSLGERATINCRASESVDNFGVSFMYWFQQKPGQPPKLLIYGASNQGSGVPDRFSGSGSGTDFTLTISSLQAEDVAVYYCQQTKEVPYTFGGGTKVEIK
B2: binds [1].

B3: mAb7 H2L0 (antibody, human IgG1, V domains shown)
VH: QVQLVQSGAEVKKPGASVKVSCKASGYTFTDYNMHWVRQAPGQRLEWMGYIVPLNGGSTFNQKFKGRATITVDTSASTAYMELSSLRSEDTAVYYCARGGTRFAYWGQGTLVTVSS
VL: DIVMTQSPDSLAVSLGERATINCRASESVDNFGVSFMYWYQQKPGQPPKLLIYGASNQGSGVPDRFSGSGSGTDFTLTISSLQAEDVAVYYCQQTKEVPYTFGGGTKVEIK
B3: binds [2].

B4: mAb12 H2*L1* (antibody, human IgG1, V domains shown)
VH: QVQLVQSGAEVKKPGASVKVSCKASGYTFTDYNMHWVRQAPGQRLEWMGYIVPLNGGSTFSQKFKGRATITVDTSASTAYMELSSLRSEDTAVYYCARGGTRFAYWGQGTLVTVSS
VL: DIVMTQSPDSLAVSLGERATINCKASESVDNFGVSFMYWFQQKPGQPPKLLIYGASNQGSGVPDRFSGSGSGTDFTLTISSLQAEDVAVYYCQQTKEVPYTFGGGTKVEIK
B4: binds [3].

B5: mAb1 H0L0 (antibody, human IgG1, V domains shown)
VH: QVQLVQSGAEVKKPGASVKVSCKASGYTFTDYNMHWVRQAPGQRLEWMGYIVPLNGGSTFNQKFKGRVTITRDTSASTAYMELSSLRSEDTAVYYCARGGTRFAYWGQGTLVTVSS
VL: DIVMTQSPDSLAVSLGERATINCRASESVDNFGVSFMYWYQQKPGQPPKLLIYGASNQGSGVPDRFSGSGSGTDFTLTISSLQAEDVAVYYCQQTKEVPYTFGGGTKVEIK
B5: binds [2].

B6: mAb19 H4L0 (antibody, human IgG1, V domains shown)
VH: QVQLVQSGAEVKKPGASVKVSCKASGYTFTDYNMHWVRQAPGQRLEWIGYIVPLNGGSTFNQKFKGRATITVDTSARTAYMELSSLRSEDTAVYYCARGGTRFAYWGQGTLVTVSS
VL: DIVMTQSPDSLAVSLGERATINCRASESVDNFGVSFMYWYQQKPGQPPKLLIYGASNQGSGVPDRFSGSGSGTDFTLTISSLQAEDVAVYYCQQTKEVPYTFGGGTKVEIK
B6: binds [2].

B7: mAb10 H2*L0 (antibody, human IgG1, V domains shown)
VH: QVQLVQSGAEVKKPGASVKVSCKASGYTFTDYNMHWVRQAPGQRLEWMGYIVPLNGGSTFSQKFKGRATITVDTSASTAYMELSSLRSEDTAVYYCARGGTRFAYWGQGTLVTVSS
VL: DIVMTQSPDSLAVSLGERATINCRASESVDNFGVSFMYWYQQKPGQPPKLLIYGASNQGSGVPDRFSGSGSGTDFTLTISSLQAEDVAVYYCQQTKEVPYTFGGGTKVEIK
B7: binds [2].

B8: mAb3 H0L1* (antibody, human IgG1, V domains shown)
VH: QVQLVQSGAEVKKPGASVKVSCKASGYTFTDYNMHWVRQAPGQRLEWMGYIVPLNGGSTFNQKFKGRVTITRDTSASTAYMELSSLRSEDTAVYYCARGGTRFAYWGQGTLVTVSS
VL: DIVMTQSPDSLAVSLGERATINCKASESVDNFGVSFMYWFQQKPGQPPKLLIYGASNQGSGVPDRFSGSGSGTDFTLTISSLQAEDVAVYYCQQTKEVPYTFGGGTKVEIK
B8: binds [3].

B9: mAb14 H3L1 (antibody, human IgG1, V domains shown)
VH: QVQLVQSGAEVKKPGASVKVSCKASGYTFTDYNMHWVRQAPGQRLEWIGYIVPLNGGSTFNQKFKGRATITVDTSASTAYMELSSLRSEDTAVYYCARGGTRFAYWGQGTLVTVSS
VL: DIVMTQSPDSLAVSLGERATINCRASESVDNFGVSFMYWFQQKPGQPPKLLIYGASNQGSGVPDRFSGSGSGTDFTLTISSLQAEDVAVYYCQQTKEVPYTFGGGTKVEIK
B9: binds [1].

B10: mAb22 H4*L0 (antibody, human IgG1, V domains shown)
VH: QVQLVQSGAEVKKPGASVKVSCKASGYTFTDYNMHWVRQAPGQRLEWIGYIVPLNGGSTFSQKFQGRATITVDTSARTAYMELSSLRSEDTAVYYCARGGTRFAYWGQGTLVTVSS
VL: DIVMTQSPDSLAVSLGERATINCRASESVDNFGVSFMYWYQQKPGQPPKLLIYGASNQGSGVPDRFSGSGSGTDFTLTISSLQAEDVAVYYCQQTKEVPYTFGGGTKVEIK
B10: binds [2].

B11: mAb18 H3*L1* (antibody, human IgG1, V domains shown)
VH: QVQLVQSGAEVKKPGASVKVSCKASGYTFTDYNMHWVRQAPGQRLEWIGYIVPLNGGSTFSQKFQGRATITVDTSASTAYMELSSLRSEDTAVYYCARGGTRFAYWGQGTLVTVSS
VL: DIVMTQSPDSLAVSLGERATINCKASESVDNFGVSFMYWFQQKPGQPPKLLIYGASNQGSGVPDRFSGSGSGTDFTLTISSLQAEDVAVYYCQQTKEVPYTFGGGTKVEIK
B11: binds [3].

B12: mAb15 H3L1* (antibody, human IgG1, V domains shown)
VH: QVQLVQSGAEVKKPGASVKVSCKASGYTFTDYNMHWVRQAPGQRLEWIGYIVPLNGGSTFNQKFKGRATITVDTSASTAYMELSSLRSEDTAVYYCARGGTRFAYWGQGTLVTVSS
VL: DIVMTQSPDSLAVSLGERATINCKASESVDNFGVSFMYWFQQKPGQPPKLLIYGASNQGSGVPDRFSGSGSGTDFTLTISSLQAEDVAVYYCQQTKEVPYTFGGGTKVEIK
B12: binds [3].

B13: mAb24 H4*L1* (antibody, human IgG1, V domains shown)
VH: QVQLVQSGAEVKKPGASVKVSCKASGYTFTDYNMHWVRQAPGQRLEWIGYIVPLNGGSTFSQKFQGRATITVDTSARTAYMELSSLRSEDTAVYYCARGGTRFAYWGQGTLVTVSS
VL: DIVMTQSPDSLAVSLGERATINCKASESVDNFGVSFMYWFQQKPGQPPKLLIYGASNQGSGVPDRFSGSGSGTDFTLTISSLQAEDVAVYYCQQTKEVPYTFGGGTKVEIK
B13: binds [3].

B14: mAb4 H1L0 (antibody, human IgG1, V domains shown)
VH: QVQLVQSGAEVKKPGASVKVSCKASGYTFTDYNMHWVRQAPGQRLEWMGYIVPLNGGSTFNQKFKGRVTITVDTSASTAYMELSSLRSEDTAVYYCARGGTRFAYWGQGTLVTVS
VL: DIVMTQSPDSLAVSLGERATINCRASESVDNFGVSFMYWYQQKPGQPPKLLIYGASNQGSGVPDRFSGSGSGTDFTLTISSLQAEDVAVYYCQQTKEVPYTFGGGTKVEIK
B14: binds [2].

B15: mAb13 H3L0 (antibody, human IgG1, V domains shown)
VH: QVQLVQSGAEVKKPGASVKVSCKASGYTFTDYNMHWVRQAPGQRLEWIGYIVPLNGGSTFNQKFKGRATITVDTSASTAYMELSSLRSEDTAVYYCARGGTRFAYWGQGTLVTVSS
VL: DIVMTQSPDSLAVSLGERATINCRASESVDNFGVSFMYWYQQKPGQPPKLLIYGASNQGSGVPDRFSGSGSGTDFTLTISSLQAEDVAVYYCQQTKEVPYTFGGGTKVEIK
B15: binds [2].

B16: mAb16 H3*L0 (antibody, human IgG1, V domains shown)
VH: QVQLVQSGAEVKKPGASVKVSCKASGYTFTDYNMHWVRQAPGQRLEWIGYIVPLNGGSTFSQKFQGRATITVDTSASTAYMELSSLRSEDTAVYYCARGGTRFAYWGQGTLVTVSS
VL: DIVMTQSPDSLAVSLGERATINCRASESVDNFGVSFMYWYQQKPGQPPKLLIYGASNQGSGVPDRFSGSGSGTDFTLTISSLQAEDVAVYYCQQTKEVPYTFGGGTKVEIK
B16: binds [2].

B17: mAb21 H4L1* (antibody, human IgG1, kappa, V domains shown)
VH: QVQLVQSGAEVKKPGASVKVSCKASGYTFTDYNMHWVRQAPGQRLEWIGYIVPLNGGSTFNQKFKGRATITVDTSARTAYMELSSLRSEDTAVYYCARGGTRFAYWGQGTLVTVSS
VL: DIVMTQSPDSLAVSLGERATINCKASESVDNFGVSFMYWFQQKPGQPPKLLIYGASNQGSGVPDRFSGSGSGTDFTLTISSLQAEDVAVYYCQQTKEVPYTFGGGTKVEIKR
B17: binds [3].

B18: mAb9 H2L1* (antibody, human IgG1, V domains shown)
VH: QVQLVQSGAEVKKPGASVKVSCKASGYTFTDYNMHWVRQAPGQRLEWMGYIVPLNGGSTFNQKFKGRATITVDTSASTAYMELSSLRSEDTAVYYCARGGTRFAYWGQGTLVTVSS
VL: DIVMTQSPDSLAVSLGERATINCKASESVDNFGVSFMYWFQQKPGQPPKLLIYGASNQGSGVPDRFSGSGSGTDFTLTISSLQAEDVAVYYCQQTKEVPYTFGGGTKVEIK
B18: binds [3].

B19: mAb6 H1L1* (antibody, human IgG1, V domains shown)
VH: QVQLVQSGAEVKKPGASVKVSCKASGYTFTDYNMHWVRQAPGQRLEWMGYIVPLNGGSTFNQKFKGRVTITVDTSASTAYMELSSLRSEDTAVYYCARGGTRFAYWGQGTLVTVS
VL: DIVMTQSPDSLAVSLGERATINCKASESVDNFGVSFMYWFQQKPGQPPKLLIYGASNQGSGVPDRFSGSGSGTDFTLTISSLQAEDVAVYYCQQTKEVPYTFGGGTKVEIK
B19: binds [3].
